Experimental data: the DeepSol protein solubility set

Assay: soluble on expression in E. coli; label from the status in PepcDB or PDB records

**Q.** For “MVIRSVSRFLQGNNWPDVSKIYKTIVEKWRNENPDQNAHFSLEVTGPTGTSGVVTVKPSEEIGKSEKVSEEKSSEKPSIEVATTSLKRYPPAHMRVRDKLVGILSASGLRIGLPSSVSLVFSRSDLGSATSSTERICASSQEVASTMSLPDPSQSGITDSFPRVFKEFDFLEAEHDSVSETADSCFGWLSTMRPTREKDDERASIRSSLRNLSSGGQGGEEEEEEPEEDEESESHEEEENSESDDLPRKVEDDDLEEEDEDEEERTPCPSECCDDDREDVEMMLRQDIEAYASRGGSVAASSMADDDLRSRLTNNIVSISSQMTEHRHLEEENTSVDGSSVCAYSNASMLASEYYPNRTRSLRIQCSHHLDSRIEREFSMSVNEINESNDCNLLAYGTLLSTQLYKSSCGKVCALLRDASHILTNRAMSRSFASAQETLCNVVDIPFLFVTEQFLRNSPICQRLKFTLNELKEHWETFDERRDQCQKNTTNFGRKYKLFEILDFRKKNLKGINSLRSAYKLSALGGSTSSFSLTSELDLGKLLNKLVFQVKLMIDALKDMSDAVKNSTSSQTYSLSPAILEHHRELLMCASDDAASSVNSSLSRLNIDDSISRSQHSCDSLVLLLANKRYTQALQAVRQLRRTYGEEYGCCETVDVDVLLLLFCRSHSLKAWALVGASSEELTRQSELLREANAELASCLRRNAQSLQNMERMTPSMGSASMTESFAQLPSSSDHYD”, which “soluble on expression in E. coli” value is on record?
**A.** Its value is “not soluble”.

**Q.** With “MESLIGLVNRIQRACTVLGDYGGGTGSNAFNSLWEALPTVAVVGGQSSGKSSVLESIVGRDFLPRGSGIVTRRPLVLQLHKTDDGTEEYAEFLHLPKKQFTDFALVRREIQDETDRITGKNKQISPVPIHLSIYSPNVVNLTLIDLPGLTKVAVEGQPETIAEDIESMVRTYVDKPNCIILAISPANQDIATSDAIKLAKDVDPTGERTFGVLTKLDLMDKGTNALEVLEGRSYRLQHPWVGIVNRSQADINKNVDMMLARRKEREYFDTSPDYGHLASKMGSEYLAKLLSKHLESVIRTRIPSILSLINKSIEELERELDRMGRPVAVDAGAQLYTILEMCRAFDKIFKEHLDGGRPGGDRIYGVFDNQLPAALKKLPFDRHLSLQSVKKIVSEADGYQPHLIAPEQGYRRLIEGALGYFRGPAEASVDAVHYVLKELVRKSISETEELKRFPSLQVELAAAANSSLEKFREESKKSVIRLVDMESAYLTAEFFRKLPQEIERPVTNSKNQTASPSSATLDQYGDGHFRRIASNVSAYVNMVSDTLRNTIPKACVYCQVRQAKLALLNYFYSQISKREGKQLGQLLDEDPALMDRRLECAKRLELYKKARDEIDAVAWVR” as the sequence, how does the “soluble on expression in E. coli” value read?
**A.** The value was “not soluble”.

**Q.** With “MSLPLPKAELHLHIEGTLEPELAFALAARNGVPLPYAHTDELRKAYQFDDLQSFLNLYYELMAVLRTEQDFEDLANAYLPRAAAQGVRHAEIFFDPQAHIARGVAMGTVVEGLWRALGRSTENHGVSTQLIMCFLRDESAESALETLEAAKPYLDRIIGIGLDSAEVGHPPAKFREVYEAAAALGLRRVAHAGEEGPPEYITEALDVLGVERIDHGLRCMEDDALVERLVRERVPLTLCPLSNVRLRAVDVLAEHPLPAMLDAGLLCTVNSDDPAYFGGYVADNFHAVRDALGLDQERMRELARNSFVASFLEHDEERRARYLAEVEAYDFPGEGHHHHHH” as the sequence, how does the “soluble on expression in E. coli” value read?
**A.** The value was “soluble”.

**Q.** For “GPGSMERTPTARIRDVIDSQLALRSSGFLPGNSTPDQLLHLRAAVHRNAPQHRTAAYFVDHANAFGTVGPDAVILEMRRLSIPNRIARWSAACLNSTSAVVCIDKLTPSSRTLTRGAPQGTVLAPIMFVVVMQSRCSCPSNVPYFAEGSSLMTALSPHSRATGMRSTRPQKKA”, which “soluble on expression in E. coli” value is on record?
**A.** Its value is “not soluble”.

**Q.** Which “soluble on expression in E. coli” value does the source give for “MVVSSKMDIFNELESQVRSYSRSFPTIFTKSKGYKLWDVDGKEYIDFFSGAGALNYGHNDDKMKQVLIDYLLEDGIIHSLDMGTSAKVNFLKHFNKIILEPRDLNYKIMFPGPTGTNSVESALKIARKVTGRTNIISFSNAFHGMSLGSLSITSNHFKRKGAGVPLNNSIIMPYENYLDSLNSLSYLEKVLGDSGSGVALPAAIILETVQGEGGLNTASSQWLKGIDRLCKKYNILLIVDDIQAGCGRTGTFFSFEPASIKPDIICLSKSISGIGLPMAITLIKPEYDKWEPGEHNGTFRGNNLAFLAATEALSYWKDIEFINALKWKSEKITSFLNEICLKYPQLQGEVRGRGFMQGIACNTFGIAKKICSVAFENGLIIETSGPNDEVIKLLPSLTIDLEGLSKGLEMLEDSISTILKEVTH” here?
**A.** The value was “not soluble”.

**Q.** For “MQDNSTKYLLYIQTATSNHLETNCVFLHCDYILKVPINKLVSYYAKLHLSSQSVLIETAKNILNINKLVPIYINPKTILFPLKHKRAPIQIYINAHYIVGMTAIENSTLIHFQEGIQLEVDEPFSLVSKKCHESLALKHFIENTISNLEHHHHHH”, which “soluble on expression in E. coli” value is on record?
**A.** The value was “not soluble”.

**Q.** For “MPDYDLITILGPTASGKTPFAAALAHELNTEIISADSRQIYRGMDLGTGKDLADYTVDGHPIPYHLIDIADPGYKYNVFEYQRDFLISYESIKQKGCLPVLCGGTGMYLESVLKGYKLMPVPENPELRARLANHSLEELTEILKQYKTLHNSTDVDTVKRAIRAIEIEEYYAVHPVPEREFPKLNSLIIGVDIDRELRREKITRRLKQRLDEGMVDEVRRLTEQGISPDDLIYYGLEYKFLTLYVIGKLTYEEMFTELETAIHQFAKRQMTWFRGMERRGFTIHWVSAELPMEEKIAFVIEKLRGNLEHHHHHH”, which “soluble on expression in E. coli” value is on record?
**A.** The value was “soluble”.

**Q.** For “MAPGQLALFSVSDKTGLVEFARNLTALGLNLVASGGTAKALRDAGLAVRDVSELTGFPEMLGGRVKTLHPAVHAGILARNIPEDNADMARLDFNLIRVVACNLYPFVKTVASPGVTVEEAVEQIDIGGVTLLRAAAKNHARVTVVCEPEDYVVVSTEMQSSESKDTSLETRRQLALKAFTHTAQYDEAISDYFRKQYSKGVSQMPLRYGMNPHQTPAQLYTLQPKLPITVLNGAPGFINLCDALNAWQLVKELKEALGIPAAASFKHVSPAGAAVGIPLSEDEAKVCMVYDLYKTLTPISAAYARARGADRMSSFGDFVALSDVCDVPTAKIISREVSDGIIAPGYEEEALTILSKKKNGNYCVLQMDQSYKPDENEVRTLFGLHLSQKRNNGVVDKSLFSNVVTKNKDLPESALRDLIVATIAVKYTQSNSVCYAKNGQVIGIGAGQQSRIHCTRLAGDKANYWWLRHHPQVLSMKFKTGVKRAEISNAIDQYVTGTIGEDEDLIKWKALFEEVPELLTEAEKKEWVEKLTEVSISSDAFFPFRDNVDRAKRSGVAYIAAPSGSAADKVVIEACDELGIILAHTNLRLFHH”, which “soluble on expression in E. coli” value is on record?
**A.** Its value is “soluble”.

**Q.** Which “soluble on expression in E. coli” value does the source give for “MSLPQFSVDLCLFDLDGTIVSTTTAAESAWKKLCRQHGVDPVELFKHSHGARSQEMMKKFFPKLDNTDNKGVLALEKDMADNYLDTVSLIPGAENLLLSLDVDTETQKKLPERKWAIVTSGSPYLAFSWFETILKNVGKPKVFITGFDVKNGKPDPEGYSRARDLLRQDLQLTGKQDLKYVVFEDAPVGIKAGKAMGAITVGITSSYDKSVLFDAGADYVVCDLTQVSVVKNNENGIVIQVNNPLTRDEGHHHHHH” here?
**A.** Its value is “soluble”.

**Q.** Which “soluble on expression in E. coli” value does the source give for “MGSDKIHHHHHHMITPTIRGGHEVNYLVAVEGAKVGDAIAIRVERIRVLSKAASSGVDSPREGSFVGDPYVAKKCPVCNEPWPEFEVVGIGEDAIRCKKCGAPVSPFRMINGYTMVFDHEGGVGVTVDKKTAEMIAKNAWEWHALPKNSKQVPILIFAKADIVGVPSRIRPFLGQLGTIPAVDIPDSHNAGDFGYFLINAPHPYAISKEDYETKLTDGHLDVDSVREGAIVIAPVKVEGGGVYAGDAHAMEGDGEVAGHTTDVTAETTVTVEVIKGLNLEGPILLPPEEDLPPLAKPWRKDEWEKVERLAKKFGIEVEPVAPLQIIGSGPTINDAALNGFKRAAKLFGMSVEEVKNRVTITGAVEIGRLPGIVQVSMQVPLRILEKLGIYELVVKHYNLPF” here?
**A.** The value was “not soluble”.

**Q.** For “QLQEKLYVPVKEYPDFNFVGRILGPRGLTAKQLEAETGCKIMVRGKGSMRDKKKEEQNRGKPNWEHLNEDLHVLITVEDAQNRAELKLKRAVEEVKKLLVPAAEGEDSLKKMKLMELAILNGTYRDANLKSPALHHHHHH”, which “soluble on expression in E. coli” value is on record?
**A.** Its value is “soluble”.

**Q.** With “MKIYVDADACPVKDVIIFEATKAEIPVTLVTSFSHYSNAEQPKGVETIYVDSGADAADYRIMQLAQKEDLIVTQDYGLASLALAKGCIVLHHKGYKYTNENIDQLLQTRYLSAMVRKSGKRTKGPKPFTAEDKEKFRALFKSMIPLLEHHHHHH” as the sequence, how does the “soluble on expression in E. coli” value read?
**A.** Its value is “soluble”.

**Q.** Which “soluble on expression in E. coli” value does the source give for “MSLHPETSTELADIRKKAGRRRSIVFVAGNFNIVHPGHLRLLKFAADCGDYLVVGVTADPGYDWMLPAELRLEGVRAIGVVDHAFLLHDAPEDFIAALQPSVVVKGKEHEGADNPEKAVLDGYGGRLVFSSGEVAFSSLDLIKREFREFNPSSIVKPLDYPRRHRFELLELKNVLAGFPKLRVLVLGDLIVDEYIACDPLGLSQEDPTIVVTPVLRELFVGGAGIVAGHAAGMGAQVALLTVGGGDAMADFARERLASYNVDATILTDESRPTTTKQRFRAGNKTLLRVSHLKQHDVDADLQTRMLETIEHRLPSTDLVVFSDFNYGCLPTRLVEAIGQACRARGVPMVADSQSSSQVGDISRFAEMLLIKPTEREARLAMRDFDSGLVVLVEALREKARAKNVILTLAAEGLLVHAETGSAGTVVTDRLPAFNTAPKDAAGAGDSFFVCAALALAIGTDIWRSAYLASIAAACQVGRIGNIPVTARDIIRELDTEGHHHHHH” here?
**A.** The value was “soluble”.

**Q.** With “MYWLFKSEPFKWSWEMQKARGEKGEQWDGVRNYQARNNMRAMKLGDKGFFYHSNEGLEVVGIVEVCALAHPDSTTDDPRWECVDIKAVRDMPKPVTLKDVKANPRLQDMSLVTSMRLSVQPVTEDEWIEVCRMGGLDANDILEHHHHHH” as the sequence, how does the “soluble on expression in E. coli” value read?
**A.** Its value is “soluble”.

**Q.** With “AWVDQTPRTITKETGESLTIKCVLKDHSCGLSSTTWYRTQLGSTNEKTISIGGRYDETVDKGSKSFSLRISDLRVEDSGTYKCQADYSPSCYSYPSLESAVEGAGTVLTVK” as the sequence, how does the “soluble on expression in E. coli” value read?
**A.** Its value is “soluble”.

**Q.** Which “soluble on expression in E. coli” value does the source give for “MSDVNAPAGLAALEARLQQDLAWLDLPAKPWVKPRTNAGQAVLDVAIIGGGMAGLALAAELRHLGVAAVIFDQSPAGFEGPWATTARMETLRSPKQLTGPALGLPALTFRAWYEAQFGADGWAALDKIPRLQWAEYLRWYRKALALDVRNEHRVSRVAPRTDGLVELDIMTPGQTRFMLARHVVLATGRDGLGGPWVPDFARQLPDHLWTHSAAGLQDDWFEGRRVAVIGGGASAMDSAATALEAGAQRVDLLIRRAELPRVNKGKGVGNPGMVHGYWRLPDIWKWRIRHYLNRQQVPPPRGSTLRVSRSGRARFLLDNPVLAVEANPAGGVWLQTSKARVEADFVVFATGFRTDFELRPEFAPFSSHIRVWQDRFEAPEGEADSELAVLPDLGNCFEFQEKTPGACPGLNHIHCFSYPAALSYGAVSGDIPAISEGSKRLAHALIGLLFNEDIALHFESMRSYAEPELLGDEWVASEPGTEELRPLEHHHHHH” here?
**A.** Its value is “not soluble”.

**Q.** For “MGSDKIHHHHHHMHKHADFFSYLSDHFQHTYWVPGNHEWYNSDMADRSGMLHEKIKDNVSLVNNAAVEQDGVQLIFSTLWSQISPAFAFQISQGMSDFHVIKYKGKPFSVEQFNRQHEESVSFIQKALQQKYAATTVVVSHHIPTFQHYPQQYKGSVLSEAFATELYDLIEAASPDYWIYGHHHSNVPDFTIGNTQLLTNQLGYVKCGEHAGFDRGKCLFRRGGH”, which “soluble on expression in E. coli” value is on record?
**A.** The value was “not soluble”.

**Q.** For “MTNKEKPIKHLVIDTCAIIANRNLHALADHYYAPPQILDELRSSAARKLWNTLPFEVTLREPTQTALRAVIDASKTTGDFQSLSMVDIKMIALTYDLHRQYVAENDVAETTEDDEKKNIEDLSAKVEQVTVGENTEDTKEEEIEENEESEDSAVSEGSESSESSESFDEDGWITQDNIEETLKKLGAFEIEENMLVGCLTTDFALQNVLLAMNLSLVSLSGYRIRKLKSFVLRCRTCFSTTSVMTKEFCPACGHKTLHKCAVSVDEDGNQQLHINWNRMANRRGLVYTLANPKGGKHATNERLFEDQPMPHMRMAKIHMDPLADGPFSVHDVTSRSAMLGVRTINNRAKQNRNPNESKRGGRRK”, which “soluble on expression in E. coli” value is on record?
**A.** Its value is “not soluble”.
